Reference: patent publication US20250340631A1 (HARBOUR BIOMED SHANGHAI, published 2025)
Residue numbers refer to the chain shown, from its start.

T1: human CLDN2 (human, UniProt P57739 1-230)
T1 construct: whole, on cells; also called hCLDN2
T1 sequence (looked up): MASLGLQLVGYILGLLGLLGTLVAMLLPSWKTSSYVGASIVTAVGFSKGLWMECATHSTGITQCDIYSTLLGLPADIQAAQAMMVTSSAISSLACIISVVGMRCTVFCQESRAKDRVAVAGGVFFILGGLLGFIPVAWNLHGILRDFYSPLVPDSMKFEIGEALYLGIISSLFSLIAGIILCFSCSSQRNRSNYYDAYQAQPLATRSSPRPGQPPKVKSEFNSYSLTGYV

T2: Human CD32b (human, UniProt P31994 46-217, limits assumed)
T2 sequence (looked up): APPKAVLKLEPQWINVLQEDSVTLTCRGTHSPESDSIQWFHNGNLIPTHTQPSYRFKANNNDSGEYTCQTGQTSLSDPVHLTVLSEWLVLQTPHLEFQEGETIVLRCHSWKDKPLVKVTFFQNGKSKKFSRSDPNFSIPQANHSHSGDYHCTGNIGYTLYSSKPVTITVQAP

T3: Human CD32a(H) (human, UniProt P12318 36-218, limits assumed)
T3 sequence (looked up): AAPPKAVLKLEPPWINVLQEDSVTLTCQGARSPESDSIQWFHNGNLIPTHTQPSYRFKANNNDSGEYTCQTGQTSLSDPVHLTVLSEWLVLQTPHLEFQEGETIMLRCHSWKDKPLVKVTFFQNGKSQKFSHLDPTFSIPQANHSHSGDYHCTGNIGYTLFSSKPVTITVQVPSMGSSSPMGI

B1: PR005397 (bispecific antibody, human IgG1, lambda, L234A L235A)
chain: EVQLVESGGGLVQPGGSLRLSCAASGFTFSSYWMHWVRQVPGKGLVWVSRISSTGSRTIYADSVKGRFTISRDNAKNTLYLQMNSLRAEDTAVYYCARGEDHDILTGYPIRGQGTTVTVSSGGGGSGGGGSGGGGSEVQLVESGGGLVQPGGSLRLSCAASGFTFSSYWMHWVRQVPGKGLVWVSRISSTGSRTIYADSVKGRFTISRDNAKNTLYLQMNSLRAEDTAVYYCARGEDHDILTGYPIRGQGTTVTVSSASEPKSSDKTHTCPPCPAPEAAGGPSVFLFPPKPKDTLMISRTPEVTCVVVDVSHEDPEVKFNWYVDGVEVHNAKTKPREEQYNSTYRVVSVLTVLHQDWLNGKEYKCKVSNKALPAPIEKTISKAKGQPREPQVCTLPPSREEMTKNQVSLSCAVKGFYPSDIAVEWESNGQPENNYKTTPPVLDSDGSFFLVSKLTVDKSRWQQGNVFSCSVMHEALHNHYTQKSLSLSPGK
heavy: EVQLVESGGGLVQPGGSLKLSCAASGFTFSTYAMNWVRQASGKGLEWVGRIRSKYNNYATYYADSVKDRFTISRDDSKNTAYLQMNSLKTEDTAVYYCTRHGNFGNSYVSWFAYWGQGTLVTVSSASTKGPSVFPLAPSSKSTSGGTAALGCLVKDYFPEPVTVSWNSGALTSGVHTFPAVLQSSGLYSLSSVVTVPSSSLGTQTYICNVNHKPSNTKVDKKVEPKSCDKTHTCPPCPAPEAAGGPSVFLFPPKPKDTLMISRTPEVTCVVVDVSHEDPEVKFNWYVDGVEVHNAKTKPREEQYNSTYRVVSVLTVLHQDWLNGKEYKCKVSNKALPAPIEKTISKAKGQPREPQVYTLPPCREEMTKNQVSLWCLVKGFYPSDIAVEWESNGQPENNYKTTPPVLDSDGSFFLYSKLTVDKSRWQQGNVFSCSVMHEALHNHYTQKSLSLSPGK
light: QAVVTQEPSLTVSPGGTVTLTCRSSTGAVTTSNYANWVQQKPGQAPRGLIGGTNKRAPWTPARFSGSLLGDKAALTLLGAQPEDEAEYFCALWYSNLWVFGGGTKLTVLGQPKAAPSVTLFPPSSEELQANKATLVCLISDFYPGAVTVAWKADSSPVKAGVETTTPSKQSNNKYAASSYLSLTPEQWKSHRSYSCQVTHEGSTVEKTVAPTECS
notes: structure 1; CD3 Fab from PR003886, CLDN18.2 VH from PR007246; LALA
B2: PR005411 (bispecific antibody, human IgG1, lambda, L234A L235A)
chain: B1 chain with T54D, G55A, T190D, G191A
heavy: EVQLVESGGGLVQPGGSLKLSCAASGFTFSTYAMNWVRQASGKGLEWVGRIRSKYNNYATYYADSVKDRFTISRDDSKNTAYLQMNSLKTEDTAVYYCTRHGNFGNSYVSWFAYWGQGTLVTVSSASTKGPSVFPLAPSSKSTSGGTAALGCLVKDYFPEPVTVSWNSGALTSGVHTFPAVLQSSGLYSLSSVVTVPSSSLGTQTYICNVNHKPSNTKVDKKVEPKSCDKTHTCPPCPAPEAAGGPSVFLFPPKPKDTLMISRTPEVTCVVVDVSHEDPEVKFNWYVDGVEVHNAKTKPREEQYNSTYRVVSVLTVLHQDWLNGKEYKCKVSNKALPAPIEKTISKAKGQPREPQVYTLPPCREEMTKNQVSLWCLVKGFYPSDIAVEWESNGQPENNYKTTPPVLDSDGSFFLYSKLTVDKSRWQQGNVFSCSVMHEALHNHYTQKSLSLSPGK
light: B1 light
notes: structure 1; CD3 Fab from PR003886, CLDN18.2 VH from PR007245; LALA
B3: PR006023 (bispecific antibody, human IgG1, lambda, L234A L235A)
chain: B1 chain
heavy: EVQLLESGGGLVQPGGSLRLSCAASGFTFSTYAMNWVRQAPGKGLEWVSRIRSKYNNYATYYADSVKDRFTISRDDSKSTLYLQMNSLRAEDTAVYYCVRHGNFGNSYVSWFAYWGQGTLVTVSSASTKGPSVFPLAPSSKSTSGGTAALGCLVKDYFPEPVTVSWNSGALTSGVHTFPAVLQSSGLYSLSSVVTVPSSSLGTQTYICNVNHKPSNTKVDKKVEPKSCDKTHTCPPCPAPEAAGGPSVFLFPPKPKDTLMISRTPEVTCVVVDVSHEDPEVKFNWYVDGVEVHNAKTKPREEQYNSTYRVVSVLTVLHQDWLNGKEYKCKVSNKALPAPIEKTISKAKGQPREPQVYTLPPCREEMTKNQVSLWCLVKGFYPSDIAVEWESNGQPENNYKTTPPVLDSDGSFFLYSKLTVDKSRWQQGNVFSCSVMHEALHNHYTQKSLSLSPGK
light: B1 light
notes: structure 1; CD3 Fab from PR001848, CLDN18.2 VH from PR007246; LALA
B4: Positive Control (hCLDN2 row) (antibody, human IgG1, kappa, V domains shown)
VH: VKLLQSGAALVPKPGDSMKMSCKASGYTFTHDIIHWVRQSHGKSLEWIGYINPYNGGTNYNEKFKTKATMTVDKPSSTAYLELTRVSSEASAIYYCATGSFDYWGQGVMVTVSS
VL: DVVLTQTPGSLSLAIGQSASISCKSSQSLLGTSGKTFLNWILQRPGQSPERLIYQVSKLYSEVPDRFSGSGSETEFTLKISRVEAEDLGVYYCWQGIHFPHTFGAGTKLELKR
notes: The sheet prints only 'Positive Control'; also called PR005080; Human Claudin-2 Antibody (PR005080)
B5: PR005422 (bispecific antibody, human IgG1, lambda, L234A L235A)
chain: EVQLVESGGGLVQPGGSLRLSCAASGFTFSSYWMYWVRQVPGKGLVWVSHINPLGSTTQYADSVKGRFTISRDNAKNMLYLQMNSLRAEDTAVYYCARDFPVLGGSHFDFQHWGQGTLVTVSSGGGGSGGGGSGGGGSEVQLVESGGGLVQPGGSLRLSCAASGFTFSSYWMYWVRQVPGKGLVWVSHINPLGSTTQYADSVKGRFTISRDNAKNMLYLQMNSLRAEDTAVYYCARDFPVLGGSHFDFQHWGQGTLVTVSSASEPKSSDKTHTCPPCPAPEAAGGPSVFLFPPKPKDTLMISRTPEVTCVVVDVSHEDPEVKFNWYVDGVEVHNAKTKPREEQYNSTYRVVSVLTVLHQDWLNGKEYKCKVSNKALPAPIEKTISKAKGQPREPQVCTLPPSREEMTKNQVSLSCAVKGFYPSDIAVEWESNGQPENNYKTTPPVLDSDGSFFLVSKLTVDKSRWQQGNVFSCSVMHEALHNHYTQKSLSLSPGK
heavy: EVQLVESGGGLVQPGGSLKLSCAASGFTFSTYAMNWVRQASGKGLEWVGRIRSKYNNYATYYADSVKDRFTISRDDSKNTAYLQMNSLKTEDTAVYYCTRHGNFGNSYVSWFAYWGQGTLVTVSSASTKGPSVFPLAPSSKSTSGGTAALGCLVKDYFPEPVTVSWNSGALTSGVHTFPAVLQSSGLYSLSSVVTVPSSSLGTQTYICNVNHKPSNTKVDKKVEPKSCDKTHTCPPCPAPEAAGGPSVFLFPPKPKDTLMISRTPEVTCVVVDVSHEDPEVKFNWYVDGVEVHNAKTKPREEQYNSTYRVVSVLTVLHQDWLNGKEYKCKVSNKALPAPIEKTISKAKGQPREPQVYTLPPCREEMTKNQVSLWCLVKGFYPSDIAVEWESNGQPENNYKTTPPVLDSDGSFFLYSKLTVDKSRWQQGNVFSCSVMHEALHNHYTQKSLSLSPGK
light: B1 light
notes: structure 1; CD3 Fab from PR003886, CLDN18.2 VH from PR007247; LALA
B6: PR005398 (bispecific antibody, human IgG1, lambda, L234A L235A)
chain: B1 chain with S52N, S53F, T54D, G55S, S188N, S189F, T190D, G191S
heavy: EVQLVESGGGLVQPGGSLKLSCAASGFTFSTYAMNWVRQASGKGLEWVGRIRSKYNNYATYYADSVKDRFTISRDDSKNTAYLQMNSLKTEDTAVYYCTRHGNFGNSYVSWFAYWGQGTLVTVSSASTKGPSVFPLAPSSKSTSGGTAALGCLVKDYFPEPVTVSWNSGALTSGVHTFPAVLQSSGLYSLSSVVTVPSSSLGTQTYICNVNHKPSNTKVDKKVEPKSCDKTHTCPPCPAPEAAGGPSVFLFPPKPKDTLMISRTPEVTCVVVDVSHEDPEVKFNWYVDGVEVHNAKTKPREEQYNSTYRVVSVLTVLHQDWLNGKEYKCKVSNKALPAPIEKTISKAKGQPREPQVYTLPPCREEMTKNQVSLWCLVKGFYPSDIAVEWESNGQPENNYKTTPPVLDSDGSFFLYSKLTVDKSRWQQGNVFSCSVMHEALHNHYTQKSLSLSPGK
light: B1 light
notes: structure 1; CD3 Fab from PR003886, CLDN18.2 VH from PR007242; LALA
B7: PR007079 (bispecific antibody, human IgG1, lambda)
chain: B1 chain with T54A, T190A, G281A
heavy: EVQLVESGGGLVQPGGSLKLSCAASGFTFSTYAMNWVRQASGKGLEWVGRIRSKYNNYATYYADSVKDRFTISRDDSKNTAYLQMNSLKTEDTAVYYCTRHGNFGNSYVSWFAYWGQGTLVTVSSASTKGPSVFPLAPSSKSTSGGTAALGCLVKDYFPEPVTVSWNSGALTSGVHTFPAVLQSSGLYSLSSVVTVPSSSLGTQTYICNVNHKPSNTKVDKKVEPKSCDKTHTCPPCPAPEAAGAPSVFLFPPKPKDTLMISRTPEVTCVVVDVSHEDPEVKFNWYVDGVEVHNAKTKPREEQYNSTYRVVSVLTVLHQDWLNGKEYKCKVSNKALPAPIEKTISKAKGQPREPQVYTLPPCREEMTKNQVSLWCLVKGFYPSDIAVEWESNGQPENNYKTTPPVLDSDGSFFLYSKLTVDKSRWQQGNVFSCSVMHEALHNHYTQKSLSLSPGK
light: B1 light
notes: structure 1; CD3 Fab from PR003886, CLDN18.2 VH from PR007243; AAA
B8: PR007080 (bispecific antibody, human IgG1, lambda)
chain: B1 chain with S52D, T54R, S188D, T190R, G281A
heavy: B7 heavy
light: B1 light
notes: structure 1; CD3 Fab from PR003886, CLDN18.2 VH from PR007244; AAA
B9: PR007081 (bispecific antibody, human IgG1, lambda)
chain: B1 chain with S52N, S53F, T54D, G55S, S188N, S189F, T190D, G191S, G281A
heavy: B7 heavy
light: B1 light
notes: structure 1; CD3 Fab from PR003886, CLDN18.2 VH from PR007242; AAA

Biological target: Human FcRn (human, UniProt P55899 24-297; P61769 21-119)
Assay: BLI (Octet), antibody on FAB2G sensor, pH 6.0, 1:1 global fit; pH 6.0; 400-25 nM
Procedure: (§1) The binding kinetics between proteins and antibodies was analyzed by the Biolayer Interferometry (BLI) technique using an Octet Red 96e (Fortebio) system. The rotation speed was set at 1000 rpm for the system. […] After equilibrated in the buffer for 120 s, the FAB2G sensor was allowed to bind to 2-fold serially diluted human Fc receptor protein. Finally, the FAB2G sensor was immersed in a 10 mM glycine-hydrochloric acid solution at pH 1.5 for regeneration to elute the proteins bound to the sensor. The affinity assays of antibodies for FcRn were performed under the conditions of both pH 6.0 buffer and pH 7.4 buffer. […] For the interactions of fast binding and fast dissociation, the “steady state” method was selected to fit the data to obtain KD(M) values.

Human FcRn, sequence (P55899 24-297 limits assumed, chain 1 of 2): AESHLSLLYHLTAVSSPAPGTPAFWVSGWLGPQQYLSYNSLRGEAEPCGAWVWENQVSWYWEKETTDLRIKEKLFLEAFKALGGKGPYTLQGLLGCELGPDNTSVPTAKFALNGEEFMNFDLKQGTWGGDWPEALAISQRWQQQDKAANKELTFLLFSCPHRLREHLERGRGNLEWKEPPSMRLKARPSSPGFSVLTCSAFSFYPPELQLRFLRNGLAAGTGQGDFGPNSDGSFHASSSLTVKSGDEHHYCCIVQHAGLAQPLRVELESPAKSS
Human FcRn, sequence (P61769 21-119 limits assumed, chain 2 of 2): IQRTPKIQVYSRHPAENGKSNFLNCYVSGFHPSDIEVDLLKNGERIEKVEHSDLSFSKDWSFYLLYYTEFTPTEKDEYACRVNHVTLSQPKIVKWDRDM

B1 and B2 are within 1.5-fold of each other in Kd: 182 nM for the first, 215 nM for the second.

With B3 the Kd was 210 nM.

B1 and B2 are within 1.5-fold of each other in koff: 0.0586 s⁻¹ for the first, 0.0644 s⁻¹ for the second.

In the case of B3, the koff is reported as 0.0626 s⁻¹.

B1 and B2 are within 1.5-fold of each other in kon: 322000 M⁻¹ s⁻¹ for the first, 300000 M⁻¹ s⁻¹ for the second.

In the case of B3, the kon is reported as 298000 M⁻¹ s⁻¹.

Biological target: T1, human CLDN2
Assay: FACS on HEK293 cells transiently expressing human CLDN2
Procedure: Antibodies were assayed for binding affinity to human CLDN18.2 paralogous proteins by FACS (ACEA NovoCyte). CLDN1, CLDN2, CLDN3, CLDN4, CLDN6 and CLDN9 genes of the human CLDN18.2 paralogous family were transiently transfected into HEK293 cells. […] The cell density was adjusted to 10⁶ cells/mL, and 50 μL of the cell suspension was added to each well of a 96-well plate. An antibody was diluted to 60 nM with FACS buffer, and 50 μL of the antibody dilution was added to each well of the 96-well plate. After 2 h of incubation at 4° C., the plate was washed twice with FACS buffer. Then, an FACS buffer containing a secondary antibody was added. After 1 h of incubation at 4° C., the plate was washed twice with FACS buffer. The cells were resuspended in fixative solution, and run FACS.

B4: binds.

Biological target: T4, Human CD64 (human, UniProt P12314 16-288, limits assumed)
T4 construct: bought recombinant protein
Assay: BLI (Octet), antibody on FAB2G sensor, 1:1 global fit
Procedure: as §1

T4 sequence (P12314 16-288 limits assumed): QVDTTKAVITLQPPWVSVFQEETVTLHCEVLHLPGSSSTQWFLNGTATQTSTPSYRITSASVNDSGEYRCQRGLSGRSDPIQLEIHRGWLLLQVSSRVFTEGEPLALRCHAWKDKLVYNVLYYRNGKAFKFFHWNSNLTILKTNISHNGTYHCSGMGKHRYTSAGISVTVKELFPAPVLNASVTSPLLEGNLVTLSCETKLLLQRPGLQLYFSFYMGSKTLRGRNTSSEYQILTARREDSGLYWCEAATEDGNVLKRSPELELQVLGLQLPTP

B1 and B2 are within 1.5-fold of each other in Kd: 50.6 nM for the first, 47.1 nM for the second.

Work on B3 yielded a Kd of 53.9 nM.

B1 and B2 are within 1.5-fold of each other in koff: 0.0438 s⁻¹ for the first, 0.0417 s⁻¹ for the second.

In the case of B3, the koff is reported as 0.0471 s⁻¹.

B1 and B2 are within 1.5-fold of each other in kon: 866000 M⁻¹ s⁻¹ for the first, 885000 M⁻¹ s⁻¹ for the second.

With B3 the kon was 874000 M⁻¹ s⁻¹.

Biological target: human CLDN18.2 (human)
Assay: cell-based or functional assay

First: B1
Second: B2
The “TDCC, Titer EC50 (pM), NUGC4_D8” value of the first is lower: 10 pM for the first, 11 pM for the second.

Compared with B3, B5 is lower in “TDCC, Titer EC50 (pM), NUGC4_D8” value: 48.5 pM for the first, 21.9 pM for the second.

For B6, the “TDCC, Titer EC50 (pM), NUGC4_D8” value was 9 pM.

Biological target: CLDN18.2 of SNU620 cells (methionine to leucine at amino acid 149) (human, UniProt P56856-2 1-261)
Assay: cell-based or functional assay

CLDN18.2 of SNU620 cells (methionine to leucine at amino acid 149), sequence (P56856 other isoform, or with tags, fused parts or gaps limits assumed): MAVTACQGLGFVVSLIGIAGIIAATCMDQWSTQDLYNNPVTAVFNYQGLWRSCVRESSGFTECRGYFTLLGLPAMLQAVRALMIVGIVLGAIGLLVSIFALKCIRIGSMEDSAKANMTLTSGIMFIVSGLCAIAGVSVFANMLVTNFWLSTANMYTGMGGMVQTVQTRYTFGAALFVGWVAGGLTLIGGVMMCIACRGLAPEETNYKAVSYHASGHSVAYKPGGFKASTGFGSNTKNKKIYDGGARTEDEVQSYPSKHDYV

First: B1
Second: B2
The “TDCC, Titer EC50 (pM), SNU620” value of the first is lower: 31.6 pM for the first, 38.5 pM for the second.

Compared with B5, B6 is lower in “TDCC, Titer EC50 (pM), SNU620” value: 313 pM for the first, 18.3 pM for the second.

Biological target: T5, human CLDN18.2 (human)
T5 construct: the HEK293 line was made with a GenScript plasmid; also called hCLDN18.2
Assay: FACS on NUGC4_D8 cells
Procedure: (§2) Antibodies were assayed for binding affinity by FACS. Test cells include HEK293/hCLDN18.2, HEK293/hCLDN18.1, NUGC4_D8 and Jurkat cells. […] The cell density was adjusted to 10⁶ cells/mL, and 50 μL of the cell suspension was added to each well of a 96-well plate. Antibodies were diluted to different concentrations with FACS buffer, and 50 μL of the antibody dilution was added to each well of the 96-well plate. After 2 h of incubation at 4° C., the plate was washed twice with FACS buffer. […] After 1 h of incubation at 4° C., the plate was washed twice with FACS buffer. The cells were resuspended in fixative solution, and then the fluorescence of the cells was monitored using an FACS instrument (ACEA NovoCyte).

B1 and B2 are within 1.5-fold of each other in EC50: 27.5 nM for the first, 20.5 nM for the second.

Compared with B3, B6 is 1.6-fold lower in EC50: 31.3 nM for the first, 19.4 nM for the second. The second is the more potent here.

Compared with B7, B8 is 1.6-fold lower in EC50: 73.2 nM for the first, 46.7 nM for the second. The second is the more potent here.

For B9, the EC50 was 49.3 nM.

Biological target: T5, human CLDN18.2
Assay: FACS on HEK293/hCLDN18.2 cells
Procedure: as §2

B1 and B2 are within 1.5-fold of each other in EC50: 12.8 nM for the first, 16 nM for the second.

In the case of B6, the EC50 is reported as 20.4 nM.

Biological target: T2, Human CD32b
Assay: BLI (Octet), antibody on FAB2G sensor
Procedure: as §1

B1: no binding (tested: 10000-625 nM).
B2: no binding (tested: 10000-625 nM).
B3: no binding (tested: 10000-625 nM).

Biological target: T3, Human CD32a(H)
Assay: BLI (Octet), antibody on FAB2G sensor
Procedure: as §1

B1: no binding (tested: 10000-625 nM).
B2: no binding (tested: 10000-625 nM).
B3: no binding (tested: 10000-625 nM).

Biological target: Human CD16a(F) (human, UniProt P08637 17-208)
Assay: BLI (Octet), antibody on FAB2G sensor
Procedure: as §1

Human CD16a(F), sequence (P08637 17-208 limits assumed): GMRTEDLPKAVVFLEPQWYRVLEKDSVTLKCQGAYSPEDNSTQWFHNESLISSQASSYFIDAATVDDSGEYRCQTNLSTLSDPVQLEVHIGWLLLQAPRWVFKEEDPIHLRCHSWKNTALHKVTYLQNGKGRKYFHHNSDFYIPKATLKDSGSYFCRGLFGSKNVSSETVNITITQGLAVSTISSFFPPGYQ

B1: no binding (tested: 10000-625 nM).
B2: no binding (tested: 10000-625 nM).
B3: no binding (tested: 10000-625 nM).

Biological target: Human CD16a(V) (human, UniProt P08637 17-208)
Assay: BLI (Octet), antibody on FAB2G sensor, steady state fit
Procedure: as §1

Human CD16a(V), sequence (P08637 17-208 F176V limits assumed): as the sequence (P08637 17-208 limits assumed) above, with F160V counted along it

B1 and B2 are within 1.5-fold of each other in Kd: 1800 nM for the first, 2300 nM for the second.

B3 showed a Kd of 3000 nM.

Biological target: T5, human CLDN18.2
Assay: competition FACS on HEK293/hCLDN18.2 cells; competitor 200 nM biotinylated PR004549
Procedure: (§3) This example is to study the binding of anti-human CLDN18.2 bispecific antibodies to the epitope region of a human CLDN18.2 antigen. Competitive binding experiments were performed at the cellular level using human CLDN18.2-overexpressing HEK293/hCLDN18.2 cells. […] The mixture was well mixed and incubated at 4° C. for 30 min. 25 μL of the corresponding serially diluted non-biotinylated anti-human CLDN18.2 antibody was added. The mixture was well mixed and incubated at 4° C. for 1 h. The cells in each well were washed twice with 200 μL of pre-cooled FACS buffer (2% BSA in DPBS) and centrifuged at 500 g at 4° C. for 5 min, and then the supernatant was discarded. A fluorescent secondary antibody (Jackson ImmunoResearch, 016-540-084, 1:500) was added. The mixture was incubated at 4° C. in the absence of light for 1 h. The cells in each well were washed twice with 200 μL of pre-cooled FACS buffer (2% BSA in DPBS) and centrifuged at 500 g at 4° C. for 5 min, and then the supernatant was discarded. Finally, the cells in each well were resuspended in 200 μL of pre-cooled FACS buffer, and the fluorescence signal values were read using a ACEA_NovoCyte.

B1 and B2 are within 1.5-fold of each other in IC50: 67.5 nM for the first, 74.4 nM for the second.

B1 and B2 are the same in “Maximum inhibition rate (%)” value: 48% for the first, 48% for the second.

Biological target: T6, human CD3 on Jurkat cells (human, UniProt P07766 23-207)
T6 construct: whole, on cells; on cells it stands in the whole CD3/TCR complex; also called CD3-expressing cells
Assay: FACS on Jurkat cells (CD3)
Procedure: as §2

T6 sequence (P07766 23-207): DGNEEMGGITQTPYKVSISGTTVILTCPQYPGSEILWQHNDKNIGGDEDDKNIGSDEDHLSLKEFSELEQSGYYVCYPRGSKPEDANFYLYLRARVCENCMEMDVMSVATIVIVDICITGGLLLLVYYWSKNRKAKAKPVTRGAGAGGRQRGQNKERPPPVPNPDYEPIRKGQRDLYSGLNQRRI

B7: binds.
B8: binds.
B9: binds.

Biological target: T6, human CD3 on Jurkat cells
Assay: FACS on Jurkat cells (CD3)
Remark: another data set of the same source
Procedure: as §2

B1: binds.
B5: binds.
B6: binds.

Biological target: T5, human CLDN18.2
Assay: competition FACS on HEK293/hCLDN18.2 cells; competitor 10 nM biotinylated PR000400
Procedure: as §3

B1 and B2 are within 1.5-fold of each other in IC50: 81.8 nM for the first, 122 nM for the second.

Compared with B1, B2 is lower in “Maximum inhibition rate (%)” value: 98.4% for the first, 96.2% for the second.

Biological target: T6, human CD3 on Jurkat cells
Assay: FACS on Jurkat cells
Procedure: as §2

First: B2
Second: B3
The EC50 of the first is 2.1-fold higher: 85.9 nM for the first, 40.6 nM for the second.
